{"source": "paper PMC10244698", "about": "“Polypyrimidine tract binding protein 1 (PTBP1) contains a novel regulatory sequence, the rBH3, that binds the prosurvival protein MCL1” (The Journal of Biological Chemistry, 2023)", "binders": {"B1": {"name": "FITC-labeled peptide containing the RRM1 rBH3 sequence (peptide)", "peptide": "{FITC-Ahx}-NTEEAANTMVNYYTSVTPVLRGQ", "notes": "stretch of PTBP1 RRM1 with the rBH3 motif (E104-Y114) on the alpha2 helix; also called F-RRM1_(rBH3); FITC-RRM1_(rBH3); source: synthetic peptide (GenScript)"}, "B2": {"name": "RNA recognition motif 1 (RRM1) of polypyrimidine tract binding protein 1 (PTBP1), residues 55-147 (domain or fragment, human, UniProt P26599 55-147, looked up)", "chain": "GVPSRVIHIRKLPIDVTEGEVISLGLPFGKVTNLLMLKGKNQAFIEMNTEEAANTMVNYYTSVTPVLRGQPIYIQFSNHKELKTDSSPNQARA", "notes": "human PTBP1 RRM1, UniProt P26599, residues 55-147, cloned into pET28a; 15N-labelled for the NMR experiment; also called PTBP1-RRM1; recombinant wildtype RRM1 protein; source: E. coli BL21 (DE3), purified (nickel chromatography, gel filtration)"}, "B3": {"name": "FITC-labeled BAK peptide derived from its BH3 sequence (peptide)", "peptide": "{FITC-Ahx}-GQVGRQLAIIGDDINRRYD", "notes": "also called F-BAKBH3; FITC-BAK; source: synthetic peptide"}, "B4": {"name": "myeloid cell leukemia-1 (MCL1), residues 163-326 (domain or fragment, human, UniProt Q07820 163-326, looked up)", "chain": "TPPPAEEEEDELYRQSLEIISRYLREQATGAKDTKPMGRSGATSRKALETLRRVGDGVQRNHETAFQGMLRKLDIKNEDDVKSLSRVMIHVFSDGVTNWGRIVTLISFGAFVAKHLKTINQESCIEPLAESITDVLVRTKRDWLVKQRGWDGFVEFFHVEDLEG", "notes": "human MCL1, UniProt Q07820, residues 163-326, cloned into pET28a; also called recombinant MCL1; source: E. coli BL21 (DE3), purified (nickel chromatography, gel filtration)"}}, "key": {"[1]": {"target": "B4", "assay": "fluorescence polarisation; direct FPA: 10 nM FITC-RRM1_(rBH3) peptide, recombinant MCL1 titrated; 1x PBS pH 7.4, 1% DMSO", "conditions": "both partners purified"}, "[2]": {"target": "B4", "assay": "fluorescence polarisation; competitive FPA: 100 nM MCL1, 10 nM FITC-BAK BH3 peptide, unlabeled RRM1 titrated; 1x PBS pH 7.4, 0.1% DMSO", "conditions": "both partners purified"}, "[3]": {"target": "B2", "assay": "fluorescence polarisation; competitive FPA: 50 nM RRM1, 0.5 nM FTSC-labeled RNA from the 3'UTR of MCL1 mRNA, MCL1 titrated; 1x PBS pH 7.4, 1% DMSO, background of tRNA", "conditions": "both partners purified"}, "PTBP1 RRM1": {"target": "PTBP1 RRM1 (human, UniProt P26599 55-147)", "assay": "fluorescence polarization; tRNA background; 0.5 nM RNA; FP: 1x PBS pH 7.4, 1% DMSO, tRNA background, temperature not stated; EMSA: 10 mM Hepes pH 7.3, 20 mM KCl, 1 mM MgCl2, 1 mM DTT, tRNA (10 ug/ml in Methods, 10 ug/uL in Fig S2 legend), room temperature, 1% TBE agarose", "conditions": "protein: recombinant; tags: N-terminal His6 (pET28a); label: 3' FTSC (fluorescein-5-thiosemicarbazide); single-stranded, designed as unstructured"}}, "note": "Ends that are not written are not given here. * marks the point of attachment. FITC = O=C1OC2(c3ccc(O)cc3Oc3cc(O)ccc32)c2ccc(NC(=S)*)cc21; Ahx = NCCCCCC(=O)O"}
{"binder": "B1", "values": [{"measurement": "Kd", "setting": "[1]", "value": "< 10", "unit": "nM"}]}
{"binder": "B2", "values": [{"measurement": "IC50", "setting": "[2]", "value": "88 ± 3", "unit": "nM"}]}
{"binder": "B3", "values": [{"measurement": "binding result", "setting": "[2]", "value": "binds"}]}
{"binder": "B4", "values": [{"measurement": "IC50", "setting": "[3]", "value": "74.6 ± 37.3", "unit": "nM"}]}
{"binder": "ACGCUUCUCUCAGGGAAAAACAUGC (ssRNA)", "note": "[MCL1 3'UTR 25-mer RNA]", "values": [{"measurement": "Kd", "setting": "PTBP1 RRM1", "value": "16.1 ± 7.6", "unit": "nM"}]}
